# Measurements as given in PMC11021425, “Salmonella manipulates macrophage migration via SteC-mediated myosin light chain activation to penetrate the gut-vascular barrier” (The EMBO Journal, 2024).
# Molecular target: Myl12a, biotinylated (murine) (UniProt Q6ZWQ9)
# Test: BLI
substance,measurement,value
SteC 194 aa–364 aa (domain or fragment),fold decrease of affinity,10 fold
